Experimental findings from article PMC4103192 (Biochemical and biophysical research communications, 2010) are described below.

Series [1] deals with the molecule itself. Description: SEC. (In gel filtration, larger molecules generally elute earlier.)
The target in series [2] is human hepatic cytochrome P450 CYP3A4 in POPC Nanodiscs (human) (UniProt P08684). The series can be described thus: SEC.
Series [3] shares this target. The series can be described thus: steady-state enzyme activity titration.

B1: full-length rat NADPH dependent cytochrome P450 reductase (enzyme, UniProt P00388 1-678, looked up)
chain: MGDSHEDTSATMPEAVAEEVSLFSTTDMVLFSLIVGVLTYWFIFRKKKEEIPEFSKIQTTAPPVKESSFVEKMKKTGRNIIVFYGSQTGTAEEFANRLSKDAHRYGMRGMSADPEEYDLADLSSLPEIDKSLVVFCMATYGEGDPTDNAQDFYDWLQETDVDLTGVKFAVFGLGNKTYEHFNAMGKYVDQRLEQLGAQRIFELGLGDDDGNLEEDFITWREQFWPAVCEFFGVEATGEESSIRQYELVVHEDMDVAKVYTGEMGRLKSYENQKPPFDAKNPFLAAVTANRKLNQGTERHLMHLELDISDSKIRYESGDHVAVYPANDSALVNQIGEILGADLDVIMSLNNLDEESNKKHPFPCPTTYRTALTYYLDITNPPRTNVLYELAQYASEPSEQEHLHKMASSSGEGKELYLSWVVEARRHILAILQDYPSLRPPIDHLCELLPRLQARYYSIASSSKVHPNSVHICAVAVEYEAKSGRVNKGVATSWLRAKEPAGENGGRALVPMFVRKSQFRLPFKSTTPVIMVGPGTGIAPFMGFIQERAWLREQGKEVGETLLYYGCRRSDEDYLYREELARFHKDGALTQLNVAFSREQAHKVYVQHLLKRDREHLWKLIHEGGAHIYVCGDARNMAKDVQNTFYDIVAEFGPMEHTQAVDYVKKLMTKGRYSLDVWS
As usually defined, the Kd is the equilibrium constant for the complex coming apart. High values mean a looser complex, low ones a tighter complex. In the case of B1, the binding result in series [1] was “binds”. In series [2], this molecule had a stoichiometry N (CPR per CYP3A4) of 1. This molecule also came in with a Kd in series [3] of 10 to 50 nM.
